Here are results for nine substances from patent US8501487B2, “Composition for use as a peptide retention standard and a method of predicting peptide hydrophobicity in liquid chromatography” (University of Manitoba, priority 2008, dated 2013).

Read-outs that look alike come from different tables or passages of the source.

The conditions of series [1]: rhGH tryptic digest, literature data; cited from earlier work.
Series [2] in a line: Isocratic RP HPLC: log k vs φ plots, UHI (acetonitrile concentration at k=10) and S slope. In kind it is physicochemical. The note with it: for UHI 100 Å C18 − TFA / UHI 100 Å C18 − FA / UHI 300 Å C18 − TFA / UHI 100 Å C18 − pH 10: acetonitrile concentration (ACN %) at k=10, isocratic, in %; for UHI 100 Å C18 − TFA: 0.1% TFA; for UHI 100 Å C18 − TFA / UHI 100 Å C18 − FA / UHI 300 Å C18 − TFA: ~25° C.; for UHI 100 Å C18 − FA: 0.1% formic acid; for UHI 300 Å C18 − TFA: Vydac 218 TP C18, 0.1% TFA; for UHI 100 Å C18 − pH 10: XTerra C18, 20 mM ammonium formate pH 10, ~25° C.; for S value (slope in LSS equation): isocratic, TFA, pH 2. An excerpt: Accordingly, in a further embodiment of the present disclosure there is included, a method of predicting hydrophobicity of a peptide: • (a) measuring retention time for each peptide of a standard peptide mixture at three or more different concentrations of acetonitrile under isocratic conditions; • (b) calculating a retention coefficient k for each peptide in the mixture and at each concentration of acetonitrile using equation (2) k=(tR−tO)/TOc (2) • wherein • tR is the retention time, • tO is system dead time, and • TOc is column dead time; • (c) for each peptide in the mixture, plotting log k vs φ, wherein φ is the acetonitrile volume fraction; • (d) for each peptide in the mixture, determining the value of φ when log k=1 and converting this to acetonitrile concentration to provide a universal hydrophobicity index (UHI); • (e) plotting retention times of each peptide vs its UHI; • (f) determining the retention time of an unknown peptide under the isocratic liquid chromatographic conditions; and • (g) determining from the plot in (e) the value of UHI that corresponds to the retention time of the unknown peptide, • wherein the UHI correlates to the hydrophobicity of the unknown peptide.
Two chromatographic setups: micro-flow 3 μl/min and “semi-micro” at 150 μl/min were employed utilizing a micro-Agilent 1100 Series system (Agilent Technologies, Wilmington, Del.) with two column sizes: 300 μm×150 mm (micro) and 1 mm×100 mm (semi-micro). The three stationary phases studied included: Vydac 218 TP C18, 300 Å pore size, 5 μm (Grace Vydac, Hesperia, Calif.); Luna C18(2) 100 Å, 5 μm (Phenomenex, Torrance, Calif.) and XTerra C18, 120 Å, 5 μm (Waters, Milford, Mass.). Three different ion-pairing systems with linear water-acetonitrile gradients were employed: 0.1% trifluoroacetic acid (TFA) in both eluents A and B (Vydac and Luna), 0.1% formic acid (FA, Luna) and 20 mM ammonium formate pH 10 (XTerra). This provided us with four different mobile/stationary phase combinations corresponding to four versions of SSRCalc model: 100 and 300 Å for TFA, 100 Å with FA and 100 Å at pH 10. Gradient separations of the 6-peptide mixture in “semi-micro” flow mode were performed in all four systems using 0.5, 1, 2 and 4% acetonitrile per minute gradient slopes.
Stock solutions of the 6 custom peptides (˜1 mg/ml) were prepared by dissolving in 1 ml of 0.1% TFA in water (20% acetonitrile for peptides #5 and 6). Ten microliters sample injection was applied for “semi-micro” conditions in both isocratic and gradient modes. Individual peptides, their mixture and the S1-S5 retention standard were diluted to provide ˜0.5-1 μg injection of each component. 214 nm UV detection was used. All chromatographic experiments were conducted at room temperature, ˜25° C. Dead volume of the column and connecting tubings was measured using injection of non-retained compound (water) and measuring elution time of negative peak. Retention coefficients for isocratic elution were calculated using the formula: k=(tR−t0)/t0c; where tR is retention time, t0 and t0c—system (column and tubings) and column dead time.
Since accurate measurement of ACN % hydrophobicity using gradient elution is problematic it is proposed to use isocratic conditions for this purpose. […] This confirms once again that peptides elute from reversed-phase sorbents within a very narrow range of acetonitrile concentration. It is clear as well that the slope of these dependencies decrease systematically as peptide hydrophobicity increase. This is the reason for narrowing ACN percentage scale for shallow gradients in FIG. 2.
It is proposed to use acetonitrile concentration at which the capacity factor of any given peptide is equal to 10 (at room temperature ˜25° C.) as a measure of peptide hydrophobicity. This value is referred to herein as peptide Universal Hydrophobicity Index (UHI), since it depends only on type of the sorbent and ion-pairing modifier. […]

Series [3] can be described thus: Gradient RP HPLC: acetonitrile concentration at elution and ACN % range covered. It counts as physicochemical. The note with it: gradient conditions (FIG. 2c), Luna C18(2), 0.1% TFA, gradient delay time 4.3 min taken into account. The source says:
A one percent per minute acetonitrile gradient starting from 0% was used for all separations. The retention time difference between first and last peaks on chromatograms gives direct indication of ACN % scale covered. […] Such wide coverage is very important, especially for nano- and micro-flow proteomics LC applications. While normal-flow gradient system technology is well established, in nano scale LC gradient reproducibility is harder to achieve. The correct retention time distribution of the standard peptides of the present disclosure confirms the proper development of the gradient, especially at the beginning of the chromatogram. Also note the uniform distribution of the six peaks of the peptide composition of the present disclosure throughout the chromatogram; such uniformity is rarely observed in standard peptide mixtures derived from protein digests. […]
Stock solutions of the 6 custom peptides (˜1 mg/ml) were prepared by dissolving in 1 ml of 0.1% TFA in water (20% acetonitrile for peptides #5 and 6). […] Dead volume of the column and connecting tubings was measured using injection of non-retained compound (water) and measuring elution time of negative peak. Retention coefficients for isocratic elution were calculated using the formula: k=(tR−t0)/t0c; where tR is retention time, t0 and t0c—system (column and tubings) and column dead time. […]

“QTYSK [Peptide T14, tryptic digest product of recombinant human growth hormone]”: in series [1], the “S value (slope in LSS equation)” value is listed as 24.3.
“LLLGGDFR [custom synthesized standard peptide]”: in series [2] (Luna C18(2)), the “UHI 100 Å C18 − TFA” value is reported as 20.72 and the “UHI 100 Å C18 − FA” value amounted to 13.08. In addition, in series [2], the “UHI 300 Å C18 − TFA” value amounted to 18.90 and the “UHI 100 Å C18 − pH 10” value is 18.29.
On to “ISLLLIQSWLEPVQFLR [Peptide T9, tryptic digest product of recombinant human growth hormone]”, for which, in series [1], the “S value (slope in LSS equation)” value is listed as 18.5.
Regarding “LGGGGGGDGSR [custom synthesized standard peptide]”, in series [2] (Luna C18(2)), the “UHI 100 Å C18 − TFA” value is 3.97 and the “UHI 100 Å C18 − FA” value was less than 0. Also, in series [2], the “UHI 300 Å C18 − TFA” value was 1.89 and the “UHI 100 Å C18 − pH 10” value stood at 1.14.
Turning to “ALILTLVS [peptide purchased from Bachem, singly charged at pH 2, reference compound]”, the “S value (slope in LSS equation)” value in series [2] (Luna C18(2)) turned out to be 13.47.
With “LLGGGGDFR [custom synthesized standard peptide]”, in series [2] (Luna C18(2)), the “UHI 100 Å C18 − TFA” value came to 15.53 and the “UHI 100 Å C18 − FA” value amounted to 8.55. In addition, in series [2], the “UHI 300 Å C18 − TFA” value came out at 13.35 and the “UHI 100 Å C18 − pH 10” value came out at 13.65.
Taken in the same sequence, the figures for “LLLLLDFR [custom synthesized standard peptide]” were 29.58, 21.59, 28.60 and 28.94.
In the case of “LLLLDFR [custom synthesized standard peptide]”, in series [3], the “concentration of acetonitrile required for elution” value came out at 29.6%. Further, in series [2] (Luna C18(2)), the “UHI 100 Å C18 − TFA” value amounted to 26.07, the “UHI 100 Å C18 − FA” value is given as 18.26 and the “S value (slope in LSS equation)” value was 14.69. In series [2], the “UHI 300 Å C18 − TFA” value came out at 24.78 and the “UHI 100 Å C18 − pH 10” value was 24.18. For the same substance, in series [2] (isocratic conditions, Luna C18(2), TFA (FIG. 3)), the “acetonitrile concentration at k=10” value is recorded as 26.1%.
“LGGGGGGDFR [custom synthesized standard peptide]”: in series [2] (Luna C18(2)), the “UHI 100 Å C18 − TFA” value came to 10.74 and the “UHI 100 Å C18 − FA” value was 4.58. Also, in series [2], the “UHI 300 Å C18 − TFA” value is 8.40 and the “UHI 100 Å C18 − pH 10” value is given as 6.80.
